# In patent US20170219596A1:
# Tests used:
# dCas9-SunTag10×_v4 = assay: cell-based or functional assay
# [1] = biological target: mito-mCherry-4×GCN4pep (yeast); assay: FRAP of scFv-GCN4-GFP bound to the mitochondrial scaffold in U2OS cells
# [2] = biological target: mito-mCherry-4×GCN4pep with short linker (GGSGG; SEQ ID NO:3) (yeast); assay: quantitative fluorescence microscopy on mitochondria, normalized to a sfGFP-mCherry fusion; antibodies per 4× array, short linker
Substance,"activation of CDKN1B transcription (mRNA by qPCR, K562 cells) (dCas9-SunTag10×_v4) [%]","activation of CXCR4 expression (CXCR4 protein level by FACS, K562 cells) (dCas9-SunTag10×_v4) [fold]",half-life of GFP fluorescence recovery (FRAP) [1] [min],average GFP:mCherry molar ratio [2]
scFv-GCN4-GFP-NLS-VP64,330,10 to 50,–,–
scFv-GCN4-sfGFP-GB1,–,–,5 to 10,3.4
